Assay results published in paper PMC8858909 (Advances in biological regulation, 2021).

Experiments:
[1] = target: 6xHis-tagged full-length SNX27 (human, UniProt Q96L92 1-541); assay: pull-down
[2] = target: untagged SNX27 FERM domain (human, UniProt Q96L92 273-525); assay: ITC
[3] = target: untagged full-length SNX27 (human, UniProt Q96L92 1-541); assay: ITC

Row | Binder | binding result [1] | other results
1 | GST-SNX1 residues 1-70 (domain or fragment, human, UniProt Q13596 1-70, looked up) MASGGGGCSASERLPPPFPGLEPESEGAAGGSEPEAGDSDTEGEDIFTGAAVVSKHQSPKITTSLLPINN | binds | 
2 | GST-SNX1 residues 1-80 (domain or fragment, human, UniProt Q13596 1-80, looked up) MASGGGGCSASERLPPPFPGLEPESEGAAGGSEPEAGDSDTEGEDIFTGAAVVSKHQSPKITTSLLPINNGSKENGIHEE | binds | 
3 | GST-SNX1 residues 1-60 (domain or fragment, human, UniProt Q13596 1-60, looked up) MASGGGGCSASERLPPPFPGLEPESEGAAGGSEPEAGDSDTEGEDIFTGAAVVSKHQSPK | binds | 
4 | DTEGEDIFTGAAVVSKHQSPK (domain or fragment, human, UniProt Q13596 40-60, looked up) [GST-SNX1 residues 40-60] | binds | 
5 | GST-SNX2_N-terminal (1-139) (domain or fragment, human, UniProt O60749 1-139, looked up) MAAEREPPPLGDGKPTDFEDLEDGEDLFTSTVSTLESSPSSPEPASLPAEDISANSNGPKPTEVVLDDDREDLFAEATEEVSLDSPEREPILSSEPSPAVTPVTPTTLIAPRIESKSMSAPVIFDRSREEIEEEANGDI | binds | 
6 | DTEGEDIFTGA [SNX1 peptide with the first DxF motif (residues 40-50, DIF)] |  | fold weaker than the SNX1 N-terminus [2]: ~2 fold; fold weaker than the SNX1 N-terminus [3]: ~2 fold
7 | GST-SNX1 (residues 1-142) (domain or fragment, human, UniProt Q13596 1-142, looked up) MASGGGGCSASERLPPPFPGLEPESEGAAGGSEPEAGDSDTEGEDIFTGAAVVSKHQSPKITTSLLPINNGSKENGIHEEQDQEPQDLFADATVELSLDSTQNNQKKVLAKTLISLPPQEATNSSKPQPTYEELEEEEQEDQ |  | Kd [2]: 12 µM; Kd [3]: 10 to 12 µM
8 | EQDQEPQDLFA [SNX1 peptide with the second DxF motif (residues 80-90, DLF)] |  | binding result [2]: binds; binding result [3]: binds

The next lines start with results.

Row | binding result [1] | Binder | other results
9 | binds | DTEGEDIFTGAAVVSKHQSPKITTSLLPINNGSKENGIHEE (domain or fragment, human, UniProt Q13596 40-80, looked up) [GST-SNX1 residues 40-80] | 
10 | binds | GST-SNX1 (residues 40-90) (domain or fragment, human, UniProt Q13596 40-90, looked up) DTEGEDIFTGAAVVSKHQSPKITTSLLPINNGSKENGIHEEQDQEPQDLFA | 
11 | binds | GST-SNX1 (residues 40-100) (domain or fragment, human, UniProt Q13596 40-100, looked up) DTEGEDIFTGAAVVSKHQSPKITTSLLPINNGSKENGIHEEQDQEPQDLFADATVELSLDS | 
12 | binds | GST-SNX1 (residues 1-90) (domain or fragment, human, UniProt Q13596 1-90, looked up) MASGGGGCSASERLPPPFPGLEPESEGAAGGSEPEAGDSDTEGEDIFTGAAVVSKHQSPKITTSLLPINNGSKENGIHEEQDQEPQDLFA | 
13 | binds | DTEGEDIFTGAAVVSKHQSPKITTSLLPINN (domain or fragment, human, UniProt Q13596 40-70, looked up) [GST-SNX1 residues 40-70] | 
